Results: US20080311122A1, “Antagonists of Hmgb1 and/or Rage and Methods of Use Thereof” (Medimmune, LLC, priority 2005, published 2008)
Entries after “also recorded” stand apart in the source; their conditions may differ.

T1: HMG2 (Bos taurus, UniProt P40673)
T1 construct: from tissue; host or cells: calf thymus (as read from the sentence)
T1 sequence (P40673 1-209): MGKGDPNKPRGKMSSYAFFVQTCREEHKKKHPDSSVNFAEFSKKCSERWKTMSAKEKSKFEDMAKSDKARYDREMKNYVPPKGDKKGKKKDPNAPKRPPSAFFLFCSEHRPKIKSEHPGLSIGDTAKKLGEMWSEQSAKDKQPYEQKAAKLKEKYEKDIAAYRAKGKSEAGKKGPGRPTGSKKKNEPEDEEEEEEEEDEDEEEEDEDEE

T2: recombinant HMG1 binding to RAGE-Fc (Homo sapiens, UniProt P09429)
T2 construct: made in house; host or cells: E. coli (HMG1)
T2 sequence (P09429 1-215): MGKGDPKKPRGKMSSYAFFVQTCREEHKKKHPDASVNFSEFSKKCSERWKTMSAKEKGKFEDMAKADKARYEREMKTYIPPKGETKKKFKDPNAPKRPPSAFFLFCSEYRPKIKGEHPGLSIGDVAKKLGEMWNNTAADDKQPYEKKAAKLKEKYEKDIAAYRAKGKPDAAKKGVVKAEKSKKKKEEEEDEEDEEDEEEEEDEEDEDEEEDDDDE


How the values were obtained:
[1] = Isoelectric focusing gel electrophoresis; type: physicochemical
Protocol: Isoelectric Focusing Gel Electrophoresis: Isoelectric points were determined using a Pharmacia Biotech Multiphor 2 electrophoresis system with a multi temp 3 refrigerated bath recirculation unit and an EPS 3501 XL power supply. Pre-cast ampholine gels (Amersham Biosciences, pI range 2.5-10) were loaded with 5 μg of protein. Broad range pI marker standards (Amersham, pI range 3-10, 8 μL) were used to determine relative pI for the Mabs. Electrophoresis was performed at 1500 V, 50 mA for 105 minutes. The gel was fixed using a Sigma fixing solution (5×) diluted with purified water to 1×. Staining was performed overnight at room temperature using Simply Blue stain (Invitrogen). Destaining was carried out with a solution that consisted of 25% ethanol, 8% acetic acid and 67% purified water. Isoelectric points were determined using a Bio-Rad Densitometer relative to calibration curves of the standards.

HMG2 = molecular target: T1, HMG2; test: Binding to HMG1 vs. HMG2 ELISA; set-up: species or system calf; conditions: immobilized antigen
Protocol: Binding to HMG1 vs. HMG2: Ultra high-binding ELISA plates (ThermoLab systems, #3855) were coated with either 5 ug/mL of Calf thymus HMGB1 or HMBG2 diluted in 10 mM Phosphate buffered saline (PBS), pH 7.2 and incubate overnight at 4 degrees. The plates were washed twice with Ca and Mg free PBS and 100 microliters of anti-HMGB1 antibody diluted in 10 mM PBS, pH 7.2+1% bovine serum albumin (BSA) to a final concentration of 10 ug/mL was added to each well and the plates were incubated 1 hour at room temperature. The wells were washed three times with 100 μl of PBS, pH 7.2. HRP labeled goat-anti-human IgG Kappa-chain (KPL, #14-10-10) and goat-anti-human IgG Lambda-chain (KPL, #14-10-11) were diluted in 10 mM PBS+1% BSA 1:1000 and 100 μl were added to each well and incubated for 1 hour at room temperature. The wells were then washed three times with 100 μl of PBS, pH 7.2. OPD substrate (Pierce chemical company, #34006) was prepared following the manufacturers instructions and 100 μl of prepared substrate was added to each well and the plates incubated at room temperature in the dark for 20-30 minutes. The reaction was stopped with the addition of 100 μl of 2M H2SO4, and the plates read on a plate reader at a wavelength of 490 nm.

[2] = molecular target: T2, recombinant HMG1 binding to RAGE-Fc; test: HMG1 binding to RAGE-Ig by ELISA; conditions: at the concentrations tested
Protocol: HMG1 binding to RAGE-Ig by ELISA: 50 μl/well of RAGE-Fc fusion protein at 5 μg/ml in PBS was added to each well of an ELISA plate and incubated overnight at 4° C. The plate was then blocked with 200 μl of 5% milk at 37° C. for 1 hr and washed 3× with PBS/Tween. 50 μl/well of diluted HMGB1 solution. For dose curves, HMGB1 concentrations started at 4 ug/ml in PBS. For antibody blocking the HMGB1 was preincubated in another plate with human anti-HMG1 antibodies or buffer, then transferred to the RAGE-coated plate. The plates were then incubated at room temperature for 2 hours and washed 3×. To detect any HMG1 bound to the immobilized RAGE-Fc a mixture of biotinylated mouse anti-HMG1 mAbs (10D4, 4H11, 3E10 and 5C12) each at 1 ug/ml, total Ab: 4 ug/ml, were added to each well and the plate was incubated for 1 hour at room temperature. The plate was then washed and Strepavidin-HPR was added to each well and incubated 15 min. The plate was then washed 3× and blotted dry. 100 μl of TMB developing agent was added and the plate read at 650 nm. Values were calculated as percent of inhibition with HMG1 alone equal to 0% inhibition. The data in FIG. 9 and summarized in Table 1 represent the average of two separate experiments.

[3] = system: HMG1 (recombinant, native; immobilized, soluble); test: Direct and sandwich (capture) ELISA comparing forms of HMG1; type: binding; conditions: for binding to immobilized versus soluble HMG1: two ELISA formats, rHMG1; for binding to recombinant HMG1 versus native HMG1: capture ELISA
Protocol: Direct ELISA (immobilized HMG1): Individual wells of a 96-well immunoplate (EIA/RIA plate, High binding, Costar) were coated with HMGB-1 at 5 μg/ml in PBS at 4° C. overnight. The plate was then blocked with 4% milk powder dissolved in PBS at 37° C. for 1 hour. The blocking solution was removed and replaced with human anti-HMG1 antibodies at various concentrations (see FIG. 4A). The plate was then washed (ELX-405 Plate washer, BIO-TEK) and secondary antibody (anti-human IgG-HRP, PIERCE) was added at a final concentration of 1:125,000 at 37° C. for 1 hour. HRP activity was detected with Sureblue HRP substrate (KPL). Plates were read at 450 nm using a Kinetic Microplate Reader (Molecular Devices).
Sandwich ELISA (soluble HMG1): Immunoplates (EIA/RIA plate, High binding, Costar) were coated with anti human IgG Fc at 10 μg/ml in PBS (pH 7.2) and incubated at 4° C. overnight. The coating reagent was removed and the plates were rinsed briefly with PBS. The plates were then blocked with 4% milk for 1 hour at 37° C. and rinsed with PBS. The anti-HMG1 antibodies were diluted in 4% milk. For serial dilutions, the antibodies were used at a starting concentration of 20 μg/ml. The diluted anti-HMG1 antibodies were then added into plate and incubated for 1 hr at 37° C. The plate was then washed 10 times with PBST (PBS/0.1% tween 20) and incubate with antigen (HMGB1, 2 μg/ml; or 0.7 μg/ml for native HMGB1) in 4% milk and incubated at 37° C. for 1 h. The plate was then wash 10 times and incubated with mouse anti-HMGB1, 1 μg/ml in 4% milk at 37° C. for 1 h. The plate was washed 10 times and incubated with anti-mouse IgG-HRP at 1:1000 at 37° C. for 1 h. The plate was then washed and developed. HRP activity was detected with Sureblue HRP substrate (KPL). Plates were read at 450 nm using a Kinetic Microplate Reader (Molecular Devices).

Molecule | relative binding to HMG1 and HMG2 (HMG2) | PI [1] | block of recombinant HMG1 binding to RAGE [2] | binding to immobilized versus soluble HMG1 [3] | binding to recombinant HMG1 versus native HMG1 [3]
S16: human anti-HMG1 antibody, ATCC PTA-6259; VL/VH aa SEQ ID NO: 13/15 (antibody, listed as Homo sapiens, V domains shown) VH: EVQLLESGGGLVQPGGSLRLSCAASGFTFSWYSMLWVRQAPGKGLEWVSYISPSGGFTNYADSVKGRFTISRDNSKNTLYLQMNSLRAEDTAVYYCARWDYNSGWYYDHWGQGTLVTVSS VL: AQDIQMTQSPDTLSLSPGERATLSCRASQSVNSRNLAWYQQKPGQAPRLLIYGASTRATGIPDRFSGSVSGTEFTLTISSLQPDDFATYYCQQYNSYFTFGQGTKLEIK | some binding to both HMG1 and HMG2 | 8.11 | significant ability to block the binding of HMG1 to RAGE | bound slightly better to immobilized rHMG1 | binds both recombinant and native HMG1; also recorded: binding all forms of HMG1; also recorded: bind both forms of HMG1
G9: human anti-HMG1 antibody; VL/VH aa SEQ ID NO: 34/36 (antibody, listed as Homo sapiens, V domains shown) VH: EVQLLESGGGLVQPGGSLRLSCAASGFTFSSYDMFWVRQAPGKGLEWVSRISPSGGYTYYADSVKGRFTISRDNSKNTLYLQMNSLRAEDTAVYYCARLRYFDSRGYAFDIWGQGTMVTVSS VL: AQDIQMTQSPGTLSLSPGERATLSCRASQSVRSSYLAWYQQKPGQAPRLLIYGASTRATGIPDRFSGSGSGTDFTLTISRLEPEDFAVYYCQQYGTSRWTFGQGTKVEIK | specific for HMG1 | 9.01 | did not inhibit RAGE binding; also recorded: do not at the concentrations tested | little difference in binding to immobilized or soluble HMG1 | 
E11: human anti-HMG1 antibody, recognizes HMG1 A-Box; VL/VH aa SEQ ID NO: 24/26 (antibody, listed as Homo sapiens, V domains shown) VH: EVQLLESGGGLVQPGGSLRLSCAASGFTFSRYQMNWVRQAPGKGLEWVSSISPSGGHTHYADSVKGRFTISRDNSKNTLYLQMNSLRAEDTAVYYCAKDGRQGKISTVDHWGQGTLVTVSS VL: AQDIQMTQSPGTLSLSPGERATLSCRASQSVRSNFLAWYQQKPGQAPRLLIYGASRRASGIPDRFSGSGFGADFTLSISRLEPEDFAVYYCQQYGSSPNTFGQGSRVEIK | some binding to HMG2; also recorded: bind better to HMG2 than to HMG1; also recorded: higher binding affinity for HMG2 | 8.92 |  | bind better to soluble rHMG1; also recorded: higher affinity for soluble HMG1 | 

Continued, in another order:

relative binding to HMG1 and HMG2 (HMG2) | Molecule | PI [1] | block of recombinant HMG1 binding to RAGE [2] | binding to immobilized versus soluble HMG1 [3] | binding to recombinant HMG1 versus native HMG1 [3]
some binding to both HMG1 and HMG2 | S12: human anti-HMG1 antibody; VL/VH aa SEQ ID NO: 62/64 (antibody, listed as Homo sapiens, V domains shown) VH: EVQLLESGGGLVQPGGSLRLSCAASGFTFSKYIMHWVRQAPGKGLEWVSGIVPSGGLTEYADSVKGRFTISRDNSKNTLYLQMNSLRAEDTATYYCAKEIFGQFDYWGQGTLVTVSS VL: AQSALTQPPSVSAAPRQRVTISCSGSTSNIGNNAVTWYQYFPGKAPKLLIYSDNQRPSGVPDRFSGSKSGTSASLAITGLQAEDEADYYCQSYDRGLSVVFGGGTKLTVL | 8.73 | do not at the concentrations tested | bound slightly better to immobilized rHMG1 | 
specific for HMG1 | S10: human anti-HMG1 antibody; VL/VH aa SEQ ID NO: 58/60 (antibody, listed as Homo sapiens, V domains shown) VH: EVQLLESGGGLVQPGGSLRLSCAASGFTFSWYDMWWVRQAPGKGLEWVSWIVPSGGITAYADSVKGRFTISRDNSKNTLYLQMNSLRAEDTATYYCARGNYGPSPFDYWGQGTLVTVSS VL: AQDIQMTQSPGTLSLSPGERATLSCRATQSVRKNFLAWYQQKPGQAPRLLIYDASSRATGIPDRFSGSGSGTDFTLTISRLEPEDFAVYYCQQYGNSPIIFGQGTRLEIK | 8.76 | significant ability to block the binding of HMG1 to RAGE | bound slightly better to immobilized rHMG1 | better binding to rHMG1; also recorded: discriminating between recombinant and the various native forms; also recorded: bind better to recombinant HMG1 than to native nuclear HMG1
specific for HMG1 | G20: human anti-HMG1 antibody; VL/VH aa SEQ ID NO: 46/48 (antibody, listed as Homo sapiens, V domains shown) VH: EVQLLESGGGLVQPGGSLRLSCAASGFTFSWYDMFWVRQAPGKGLEWVSWISPSGGYTKYADSVKGRFTISRDNSKNTLYLQMNSLRAEDTAMYYCARSGLDYYDSSGYLDAFDIWGQGTMVTVSS VL: AQDIQMTQSPSSVSASVGDRVTITCRASQDVSIWLAWYQQKPGKAPKLLIFGASRLQSGVPSRFSGSRSGADFTLTIDSVQPEDFASYYCQQADSFPLTFGGGTKVEIK | 7.8 | do not at the concentrations tested | bind better to soluble rHMG1 | 
